Measured values as given in the supplement of paper PMC11780869.

Test system: Bacillus subtilis
Test: cleaved RNA product abundance (RNA/gDNA barcode ratio) relative to median wild-type variant (ratio to wild type); higher = more accumulation of the downstream cleavage product
Description: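 MPRA in B. subtilis. Mutagenized RNase Y cleavage-site regions (9% mutation rate) were inserted into a barcoded reporter mRNA (truncated aprE or tetM). Cells were grown in LB at 37°C to OD600 0.3. The cleaved RNA isoform was gel-purified and its barcodes counted; the RNA:gDNA barcode ratio was normalised to the median wild-type variant, and the median over barcodes is reported per variant. The printed sequence is the variable window only; the reporter flanks are not printed.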

[1] = experiment (reporter, strain, medium): exp 2b: truncated aprE reporter, strain BJT200, cleavage site: cggR-gapA (positions -7 to +36 mutated)
[2] = experiment (reporter, strain, medium): exp 8a: truncated aprE reporter, strain BJT201 with 2% xylose (RNase J1 expressed), cleavage site: glnRA (positions -5 to +31 mutated)
[3] = experiment (reporter, strain, medium): exp 4a: truncated aprE reporter, strain BJT201 with 2% xylose (RNase J1 expressed), cleavage site: cggR-gapA (positions -7 to +36 mutated)

Sequence	cleaved RNA product abundance [2]	cleaved RNA product abundance [3]	other results
ACAGACGAAGGAGCCGCAAAGAAGTTATTAACGGATGAACAATCCCTCAATATAAATATCTCTCACTTATTTAAA			cleaved RNA product abundance [1]: 0.0917
CGACATGTCCCGCTTCTTTCATTAATTCGTTAGCAACTGCTTTGCTATATACATTTACCTTTTAAGAGGAGGAAT	0.6		
ACAGACGAAGGAGCCGCAAAGAAGTTGTAAAGGGATGAATAATCCCTCAATATAAATATCTCTCACTTATTTAAA			cleaved RNA product abundance [1]: 0.272
CGACATGTCCCGCTTCTTTCATTAATCCGTTAGCAACTGTTTTACTATAAACATTTACCTTTTAAGAGGAGGAAT	0.553		
ACAGACGAAGGAGCCGCGAAGAAGTTATTAAGGGATGAATAATCCCACAATATAAATATCTCTCACTTATTTAAA		0.227	cleaved RNA product abundance [1]: 0.17
ACAGACGAAGGAGCCGCAAAGAAGTTATTAAGGCATGACTAATCCCTCAATATAAATATCTCTCACTTATTTAAA		0.102	cleaved RNA product abundance [1]: 0.101
ACAGACGAAGGAGCCGCAAAGAAGTTATTAAGGGATTAATAATCCTTCAATATAAATATCTCTCACTTATTTAAA		0.39	cleaved RNA product abundance [1]: 0.431
ACAGACGAAGGAGCCGCAAAGAAGTTATTAAGGGAGGAATAATCCCTGAATATAAATATCTCTCACTTATTTAAA		0.635	
CGACATGTCCCGCTTCTTTCATTAATCCGGTAACAACTGTTTTGCTATATACATTTACCTTTTAAGAGGAGGAAT	0.34		
ACAGACGAAGGAGCCGCAAAGAAGTTATTAATGGATGAATAATCCCTTAATATAAATATCTCTCACTTATTTAAA		0.625	cleaved RNA product abundance [1]: 0.806
ACAGACGAAGGAGCCGCAAAGAAGTTATTAAGGGAAGAATAAACCCTCAATATAAATATCTCTCACTTATTTAAA		0.27	cleaved RNA product abundance [1]: 0.301
ACAGACGAAGGAGCCGCAAAGAAGTTATTAAGAGATGAATAATCCCTCCATATAAATATCTCTCACTTATTTAAA			cleaved RNA product abundance [1]: 0.0792
ACAGACGAAGGAGCCGCAAAGAAGTTATTAAAGGATGAATAATCCCTCAATATGAATATCTCTCACTTATTTAAA		0.0586	cleaved RNA product abundance [1]: 0.094
CGACATGTCCCGCTTCTTTCATTAATCCGTTAGCAACTGTTTTTCTATATATATTTACCTTTTAAGAGGAGGAAT	0.668		
ACAGACGAAGGAGCCGCAAAGAAGTTACTAAGGGATGAATAATCACTCAATATAAATATCTCTCACTTATTTAAA		0.177	
ACAGACGAAGGAGCCGCAAAGAAGTTATTTAGGGATGAATAATCCCTAAATATAAATATCTCTCACTTATTTAAA			cleaved RNA product abundance [1]: 0.353
ACAGACGAAGGAGCCGCAAAGAAGTTATTAAGGTATGAATAATCCCTCAATATTAATATCTCTCACTTATTTAAA		0.0645	
ACAGACGAAGGAGCCGCAAAAAGGTTATTAAGGGATGAATAATCCCTCAATATAAATATCTCTCACTTATTTAAA		1.68	
ACAGACGAAGGAGCCGCAAAGAAGTTATTAAGTGATGAATAATCACTCAATATAAATATCTCTCACTTATTTAAA		1.13	cleaved RNA product abundance [1]: 0.81
CGACATGTCCCGCTTCTTTCATTAATCTGATAGCAACTGTTTTGCTATATACATTTACCTTTTAAGAGGAGGAAT	0.81		
CGACATGTCCCGCTTCTTTCATTAATCCGTAAGCAACTGTTTTGCTATATACATTTATCTTTTAAGAGGAGGAAT	0.536		
ACAGACGAAGGAGCCGCAAAGAAGTTATTAAGGGATCAATAATCCCTCAATATAAATCTCTCTCACTTATTTAAA		0.706	
ACAGACGAAGGAGCCGCAAAGAAGTTATTAAGCCATGAATAATCCCTCAATATAAATATCTCTCACTTATTTAAA		0.106	cleaved RNA product abundance (experiment (reporter, strain, medium): exp 6: tetM reporter, strain 168, cleavage site: cggR-gapA (positions -7 to +36 mutated)): 0.058
ACAGACGAAGGAGCCGCAAAGAAGTTATTAAGGGATGAATAATCCCTCATTATAAATCTCTCTCACTTATTTAAA			cleaved RNA product abundance [1]: 0.236

Sequence	cleaved RNA product abundance [2]	cleaved RNA product abundance [3]	other results
CGACATGTCCCGCTTCTTTCATTAATCCGTTAGCAACTGTTTTACTATATACATTTACCCTTTAAGAGGAGGAAT	0.921		
CGACATGTCCCGCTTCTTTCATTAATCCGTTAGCAACTGTTTAGCTATATACATTTACTTTTTAAGAGGAGGAAT	0.591		
ACAGACGAAGGAGCCGCAAAGAAGTTATTAAGCAATGAATAATCCCTCAATATAAATATCTCTCACTTATTTAAA		0.122	cleaved RNA product abundance [1]: 0.0903
ACAGACGAAGGAGCCGCAACGAAGTTATTAAGGGATGAATAATCTCTCAATATAAATATCTCTCACTTATTTAAA		0.684	
CGACATGTCCCGCTTCTTTCATTAATCCATTACCAACTGTTTTACTATATACATTTACCTTTTAAGAGGAGGAAT	0.262		
CGACATGTCCCGCTTCTTTCATTAATTTGTTAGCAACTGTTTTGCTATATACATTTACCTTTTAAGAGGAGGAAT	1.37		
ACAGACGAAGGAGCCGCAAGGAAGTTATTAAGGAATGAATAATCCCTCAATATAAATATCTCTCACTTATTTAAA		0.115	
CGACATGTCCCGCTTCTTTCATTAATCCGTTAGCAACTGTTTTGCTATATATATTTACCTTTTAAGAGGAGGAAT	1.03		
ACAGACGAAGGAGCCGCAAAGAAGTTATGAAGGGATGAATAATCCTTCAATATAAATATCTCTCACTTATTTAAA		0.441	
CGACATGTCCCGCTTCTTTCATTAATCCGTTAGCAACTGTTTTCCTATAGACATTTACCTTTTAAGAGGAGGAAT	0.36		
CGACATGTCCCGCTTCTTTCATTAATCCGTTAGCAACTGTTTTGCTATATACATTAATCTTTTAAGAGGAGGAAT	1.54		
CGACATGTCCCGCTTCTTTCATTAATCTGTTAGCAACAGTTTTGCTATATACATTTACCTTTTAAGAGGAGGAAT	0.686		
ACAGACGAAGGAGCCGCAAAGAAGTTATTAAGGGATGAATAATCACTCAATATATATATCTCTCACTTATTTAAA		0.132	
CGACATGTCCCGCTTCTTTCATTATTCCGTTAGCAACTGCTTTGCTATATACATTTACCTTTTAAGAGGAGGAAT	0.681		
CGACATGTCCCGCTTCTTTCATTAATACGTTACCAACTGTTTTGCTATATACATTTACCTTTTAAGAGGAGGAAT	0.215		
CGACATGTCCCGCTTCTTTCATTAATCCGTTAGCATCTGTTTTGCTATATACATTTAACTTTTAAGAGGAGGAAT	0.999		
CGACATGTCCCGCTTCTTTCATTAATACGTTAGCAACTGTTTTGTTATATACATTTACCTTTTAAGAGGAGGAAT	0.372		
ACAGACGAAGGAGCCGCAATGAAGATATTAAGGCATGAATAATCCCTCAATATAAATATCTCTCACTTATTTAAA		0.138	
CGACATGTCCCGCTTCTTTCATTAGTCCGTTAGCAACAGTTTTGCTATATACATTTACCTTTTAAGAGGAGGAAT	0.968		
ACAGACGAAGGAGCCGCAAAGAATTTATTAAGGGATGAATAACCCCTCAATATAAATATCTCTCACTTATTTAAA		0.452	
CGACATGTCCCGCTTCTTTCATTAATCTGTTAGCAACTGTTTTGCTATATACATTTACCATTTAAGAGGAGGAAT	2.04		
ACAGACGAAGGAGCCGCAAAGAATTTATTAAGAGATGAATAATCCCTCAATATAAATATCTCTCACTTATTTAAA		0.142	cleaved RNA product abundance [1]: 0.112
CGACATGTCCCGCTTCTTTCATTAATCCGTTAGCAACTGTTGTGCTATATACATTTACCTTTTAAGAGGAGGAAT	0.516		
